Measured values as given in publication PMC3878821.

B1: ROS1 kinase domain G2032R mutant (Homo sapiens; G2032R) (protein)
chain: IENLPAFPREKLTLRLLLGSGAFGEVYEGTAVDILGVGSGEIKVAVKTLKKGSTDQEKIEFLKEAHLMSKFNHPNILKQLGVCLLNEPQYIILELMEGRDLLTYLRKARMATFYGPLLTLVDLVDLCVDISKGCVYLERMHFIHRDLAARNCLVSVKDYTSPRIVKIGDFGLARDIYKNDYYRKRGEGLLPVRWMAPESLMDGIFTTQSDVWSFGILIWEILTLGHQPYPAHSNLDVLNYVQTGGRLEPPRNCPDDLWNLMTQCWAQEPDQRPTFHRIQDQLQLFRNFFLNSIYKSRDE
B2: ROS1 kinase domain (nonmutant) (Homo sapiens) (protein)
chain: IENLPAFPREKLTLRLLLGSGAFGEVYEGTAVDILGVGSGEIKVAVKTLKKGSTDQEKIEFLKEAHLMSKFNHPNILKQLGVCLLNEPQYIILELMEGGDLLTYLRKARMATFYGPLLTLVDLVDLCVDISKGCVYLERMHFIHRDLAARNCLVSVKDYTSPRIVKIGDFGLARDIYKNDYYRKRGEGLLPVRWMAPESLMDGIFTTQSDVWSFGILIWEILTLGHQPYPAHSNLDVLNYVQTGGRLEPPRNCPDDLWNLMTQCWAQEPDQRPTFHRIQDQLQLFRNFFLNSIYKSRDE

Substrate: Nc1ncnc2c1ncn2[C@@H]1O[C@H](COP(=O)(O)OP(=O)(O)OP(=O)(O)O)[C@@H](O)[C@H]1O
Test: in vitro enzymatic assay, Km app for ATP
Format: biochemical, Homo sapiens
Settings: ATP-binding site

Protein | Km [µM]
B1 | 22
B2 | 65
